This note sets out measurements from US20080015165A1, “NOVEL POLYPEPTIDE” (KYOWA HAKKO KOGYO CO., LTD., priority 1998, published 2008).

This data set is described as follows: Enzyme activity for a poly-N-acetyllactosamine sugar chain, Namalwa cell extract, HPLC. The data set is classed as biochemical. The source says:
Using a poly-N-acetyllactosamine sugar chain, it was examined that to which GlcNAc in the sugar chains, human Fuc-TIX and 5 types of human α1,3-fucosyltransferase (Fuc-TIII, Fuc-TIV, Fuc-TV, Fuc-TVI, and Fuc-TVII) that had been cloned so far transferred fucose.
Control plasmid (pAMo) and the human Fuc-TIX expression plasmid pAMo-FT9 were introduced into Namalwa cells according to the method shown in Example 1 (3), thereby obtaining stable transformants.
Namalwa cells expressing each of the other 5 types of human α1,3-fucosyltransferases (Fuc-TIII, Fuc-TIV, Fuc-TV, Fuc-TVI, and Fuc-TVII) were obtained according to the previous report (Glycoconjugate J., 13, 802-812, Biochem. Biophys. Res. Commun., 237, 131-137, 1997).
The resultant transformants (about 1×10^7) were collected in microtubes (1.5 ml, manufactured by Eppendolf), followed by centrifugation at 550×g for 7 minutes to collect the cells.
The collected cells were washed with 0.9 ml of PBS. The washed cells were suspended in 100 μl of a solution which consisted of 20 mM HEPES (pH 7.2) and 1% TrironX-100, then allowed to stand at 4° C. for 10 minutes. Subsequently the cells were disrupted using a ultrasonicator (Bioruptor; manufactured by COSMO BIO CO., LTD.)
After disruption of the cells, each supernatant was obtained by centrifugation at 550×g for 7 minutes and used as an enzyme sample. A poly-N-acetyllactosamine sugar chain (Galβ1-4GlcNAcβ1-3Galβ1-4GlcNAcβ1-3Galβ1-4GlcNAc) consisting of 6 sugars was fluorescently labeled with 2-aminobenzamide to make a sugar chain (Galβ1-4GlcNAcβ1-3Galβ1-4GlcNAcβ1-3Galβ1-4GlcNAc-2AB: abbreviated as S in FIGS. 13 and 15, and table 3), which was used as a substrate
Florescent labeling was performed using a Signal™ 2-AB glycan labeling kit (manufactured by Oxford GlycoScience). A poly-N-acetyllactosamine sugar chain (Galβ1-4GlcNAcβ1-3Galβ1-4GlcNAcβ1-3Galβ1-4GlcNAc) was prepared according to WO98/03524.
Samples were allowed to react in 20 μl of an assay solution [50 mM cacodylate (pH 6.8), 5 mM ATP, 10 mM L-fucose, 75 μM […] (manufactured by SIGMA), 25 mM MnCl2, 15 μM fluorescently labeled sugar chain substrate, 6 μl of the cell lysate above] at 37° C. for 2 hours, followed by treatment at 100° C. for 3 minutes to stop the reaction. Next 200 μl of water was added to the samples, and the supernatant was obtained by centrifugation at 10,000×g for 5 minutes. Using an aliquot of the supernatant (10 μl), products were analyzed by HPLC under the following conditions.
HPLC: • Column—TSK-gel ODS-80TsQA column (4.6×250 mm; TOSOH CORPORATION) • Eluate—0.02 M ammonium acetate (pH 4.0) containing 7% methanol • Elution temperature—50° C. • Flow rate—1.0 ml/min. • Detection—Fluorescence spectrum photometer FB-920 (manufactured by JASCO Corporation) (excitation wavelength: 330 nm, radiation wavelength: 420 nm)

[1] abbreviates: relative activity with the activity for P1 assumed to be 1.
[2] abbreviates: substrate S, relative value, total of products P1, P2 and P3 by each enzyme = 100%.

B1: Fuc-TIX: human Fuc-TIX, 359 amino acids (SEQ ID NO:2), α1,3-fucosyltransferase expressed from pAMo-FT9 in Namalwa cells (protein)
chain: MTSTSKGILRPFLIVCIILGCFMACLLIYIKPTNSWIFSPMESASSVLKMKNFFSTKTDYFNETTILVWVWPFGQTFDLTSCQAMFNIQGCHLTTDRSLYNKSHAVLIHHRDISWDLTNLPQQARPPFQKWIWMNLESPTHTPQKSGIEHLFNLTLTYRRDSDIQVPYGFLTVSTNPFVFEVPSKEKLVCWVVSNWNPEHARVKYYNELSKSIEIHTYGQAFGEYVNDKNLIPTISACKFYLSFENSIHKDYITEKLYNAFLAGSVPVVLGPSRENYENYIPADSFIHVEDYNSPSELAKYLKEVDKNNKLYLSYFNWRKDFTVNLPRFWESHACLACDHVKRHQEYKSVGNLEKWFWN
modifications: human
Take B1: under setting [1], the “Enzymatic activity, substrate S, product P1” value was 7.2; the “Enzymatic activity, substrate S, product P2” value is 1.6; the “Enzymatic activity, substrate S, product P3” value came to 0.7. In addition, under setting [2], the “Production (%) P1” value is on record as 82.7%, the “Production (%) P2” value is listed as 13.4% and the “Production (%) P3” value was determined as 3.9%.
